Experimental data as given in article PMC6433294, “Differential thermal stability, conformational stability and unfolding behavior of Eis proteins from Mycobacterium smegmatis and Mycobacterium tuberculosis” (PLoS ONE, 2019).

Assays:
[1] = tested on: NC[C@H]1O[C@H](O[C@H]2[C@H](O)[C@@H](O[C@H]3O[C@H](CO)[C@@H](O)[C@H](N)[C@H]3O)[C@H](N)C[C@@H]2N)[C@H](O)[C@@H](O)[C@@H]1O; test: purified protein
[2] = biological target: the molecule itself; test: SEC; untreated protein, 100 ug, Superose 6 Increase 10/300 GL, 10 mM Tris-Cl pH 8.0, 150 mM NaCl, 1 mM EDTA, 0.5 mM beta-ME, 25°C, 0.5 ml/min; calibrated with molecular weight markers
[3] = biological target: the molecule itself; test: SDS-PAGE of unboiled sample; 10 ug unboiled protein on 8% SDS-PAGE, loading dye with 1% SDS, 0.125 M Tris pH 6.8, 40% glycerol; Coomassie stain
[4] = fixed acetyl-CoA (500 μM in the standard assay), 2 mM DTNB, 0.5 μM enzyme, 20 mM phosphate pH 8.0, 25°C

Question: Which Km ([1]; pH 8.0, 25.0 °C) does the source give for “RvEis (Mycobacterium tuberculosis H37Rv)” here?
Answer: The Km was 11 ± 1.6 µM.

Question: And the Vmax ([1]; pH 8.0, 25.0 °C)?
Answer: Its Vmax is 4 µM/min.

Question: What about the kcat/Km ([1]; pH 8.0, 25.0 °C) of the same molecule?
Answer: Its kcat/Km is 2140 M⁻¹ s⁻¹.

Question: With “MsEis (Mycolicibacterium smegmatis MC2 155)” as the molecule, how does the Km [1, 4] read?
Answer: The Km was 21 ± 0.1 µM.

Question: What about the Vmax [1, 4] of the same molecule?
Answer: Its Vmax is 4.8 µM/min.

Question: And the kcat [1, 4]?
Answer: The kcat was 0.027 ± 0.005 s⁻¹.

Question: And the kcat/Km [1, 4]?
Answer: Its kcat/Km is 1270 ± 22 M⁻¹ s⁻¹.

B1: M. smegmatis Eis (MSMEG_3513) protein (enzyme, UniProt A0QY29 1-402, looked up)
chain: MITPRTLHTITDDDWTRIALLARFAFGDIEPEQTQAAWRSMVPEDATVVVPDETDDAFVGQSLYLDMQLTVPGGEVLPVAGISFVAVAPTHRRRGVLRAMYTELHDRIARAGYPLAVLTASEGGIYGRFGYGVATIEQHVSVDRRLAQFHPAAPDPGGVRMLVPADHRDGLADIYDRWRRRTPGGLVRPDALWDDLLADRPESRRGGGELFAFGHQDGYALYRVDRGPDGRRSAHVVELTAVTADAHAALWRALLGLDLIDRVSIGTHPHDPLPYLLTDPRQAQVTASADDLWIRIMNVPAALEARRYQADLDVVLDVADGFRSDGGRFALQISGGRARCTTTDAPADIEIDLDVLGGLYLGAHRVDGFAAANRLRSKDSELLQQFGAAFAGDMPAELGYGF
notes: also called MsEis; Enhanced Intracellular Survival protein from M. smegmatis
Question: B1 was tested. Which “stoichiometry N” value [2] did it give?
Answer: Its value is 6.

B2: M. tuberculosis Eis (Rv2416c, Enhanced Intracellular Survival protein) (enzyme)
chain: MTVTLCSPTEDDWPGMFLLAAASFTDFIGPESATAWRTLVPTDGAVVVRDGAGPGSEVVGMALYMDLRLTVPGEVVLPTAGLSFVAVAPTHRRRGLLRAMCAELHRRIADSGYPVAALHASEGGIYGRFGYGPATTLHELTVDRRFARFHADAPGGGLGGSSVRLVRPTEHRGEFEAIYERWRQQVPGGLLRPQVLWDELLAECKAAPGGDRESFALLHPDGYALYRVDRTDLKLARVSELRAVTADAHCALWRALIGLDSMERISIITHPQDPLPHLLTDTRLARTTWRQDGLWLRIMNVPAALEARGYAHEVGEFSTVLEVSDGGRFALKIGDGRARCTPTDAAAEIEMDRDVLGSLYLGAHRASTLAAANRLRTKDSQLLRRLDAAFASDVPVQTAFEF
notes: also called RvEis; not shown: His tag, N-terminal, kept
Question: B2 was tested. Which “stoichiometry N” value [3] did it give?
Answer: Its value is 3.

Question: What about the “stoichiometry N” value [2] of the same molecule?
Answer: Its value is 6.
